From patent publication US20230099801A1, “RESTORATION OF T CELL ACTIVITY VIA THE CD39/CD73 AXIS” (INNATE PHARMA, priority 2017, published 2023)
“Also recorded” adds a separate entry of the source.

Key:
[1] = molecular target: T1, cell-membrane bound CD39 (CD39-expressing cells) (Homo sapiens, UniProt P49961); assay: Inhibition of the enzymatic activity of cellular CD39, Cell Titer Glo; assay type: cell-based
T1 construct: host or cells: CD39-expressing cells
T1 sequence (P49961 1-510): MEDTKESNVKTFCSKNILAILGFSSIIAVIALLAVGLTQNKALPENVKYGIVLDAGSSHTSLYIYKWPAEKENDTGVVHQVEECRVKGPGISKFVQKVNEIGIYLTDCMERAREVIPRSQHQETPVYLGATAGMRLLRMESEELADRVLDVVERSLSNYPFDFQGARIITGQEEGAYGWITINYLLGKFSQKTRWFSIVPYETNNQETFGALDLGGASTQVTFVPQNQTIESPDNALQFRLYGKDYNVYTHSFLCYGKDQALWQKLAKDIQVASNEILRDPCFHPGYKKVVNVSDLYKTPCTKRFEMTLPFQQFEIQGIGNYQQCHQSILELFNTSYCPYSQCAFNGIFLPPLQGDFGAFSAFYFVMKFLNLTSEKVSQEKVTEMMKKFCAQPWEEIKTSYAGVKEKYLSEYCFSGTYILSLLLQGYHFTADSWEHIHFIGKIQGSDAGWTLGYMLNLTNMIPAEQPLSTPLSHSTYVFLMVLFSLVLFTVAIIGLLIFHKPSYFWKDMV
Experimental: The ability of an antibody to inhibit cells expressing CD39 protein can be tested by detecting ATP after incubating test antibody with cells (e.g., Ramos cells, cells transfected with CD39, etc.). See, e.g., Example 1. Cells can be incubated for 1 hour at 37° C. with test antibody. Cells are then incubated with 20 μM ATP for 1 additional hour at 37° C. Plates are centrifuged for 2 min at 400 g and cell supernatant are transferred in a luminescence microplate (white wells). CTG is added to the supernatant and emitted light is quantified after a 5 min incubation in the dark using an Enspire™ luminometer. Anti-CD39 antibody efficacy is determined by comparing emitted light in presence of antibody with ATP alone (maximal light emission) and ATP together with cells (minimal light emission).
The inhibition of the CD39 enzymatic activity in CD39-expressing cells by antibodies was evaluated using Cell Titer Glo™ (Promega, reference G7571) that allows assessment of ATP hydrolysis through use of a reagent that generates a luminescent signal proportional to the amount of ATP present. […] Plates were centrifuged for 2 min at 400 g and 50 μl cell supernatant are transferred in a luminescence microplate (white wells). 50 μl CellTiter-Glo® Reagent (CTG) was added to the supernatant and emitted light was quantified after a 5 min incubation in the dark using a Enspire™ luminometer. […]

[2] = molecular target: T2, CD39 expressed by Ramos human lymphoma cells (Homo sapiens, UniProt P49961); assay: Inhibition of cellular CD39 ATPase activity in Ramos cells; assay type: cell-based
T2 construct: host or cells: Ramos human lymphoma cells
T2 sequence (P49961 1-510): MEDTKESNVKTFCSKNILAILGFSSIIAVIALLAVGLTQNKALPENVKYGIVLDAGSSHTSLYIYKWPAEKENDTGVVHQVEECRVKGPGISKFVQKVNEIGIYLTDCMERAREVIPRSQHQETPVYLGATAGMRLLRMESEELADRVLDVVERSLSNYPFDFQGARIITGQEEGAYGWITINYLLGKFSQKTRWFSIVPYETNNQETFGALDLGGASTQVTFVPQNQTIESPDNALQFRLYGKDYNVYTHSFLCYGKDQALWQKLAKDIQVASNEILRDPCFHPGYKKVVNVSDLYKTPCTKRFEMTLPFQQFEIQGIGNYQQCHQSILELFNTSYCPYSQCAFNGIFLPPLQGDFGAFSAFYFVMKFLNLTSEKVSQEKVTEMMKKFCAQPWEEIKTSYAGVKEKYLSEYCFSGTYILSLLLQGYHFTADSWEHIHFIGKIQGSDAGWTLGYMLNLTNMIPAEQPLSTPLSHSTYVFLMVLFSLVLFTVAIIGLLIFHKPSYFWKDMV
Experimental: (§1) The inhibition of the CD39 enzymatic activity in CD39-expressing cells by antibodies was evaluated using Cell Titer Glo™ (Promega, reference G7571) that allows assessment of ATP hydrolysis through use of a reagent that generates a luminescent signal proportional to the amount of ATP present. The assay was thus designed to permit assessment of the inhibition of ATP hydrolyzed by CD39 in the cell culture supernatant. Briefly, 5×10^4 Ramos human lymphoma cells, 5×10^3 human CD39-, cynomolgus CD39—and mouse CD39-expressing CHO cells, were incubated 1 hour at 37° C. with anti-CD39 antibodies from 30 μg/ml to 5×10^−4 μg/ml. Cells were then incubated with 20 μM ATP for 1 additional hour at 37° C. Plates were centrifuged for 2 min at 400 g and 50 μl cell supernatant are transferred in a luminescence microplate (white wells). 50 μl CellTiter-Glo® Reagent (CTG) was added to the supernatant and emitted light was quantified after a 5 min incubation in the dark using a Enspire™ luminometer. Anti-CD39 antibody efficacy was determined by comparing emitted light in presence of antibody with ATP alone (maximal light emission) and ATP together with cells (minimal light emission).

human CD39 (CHO-huCD39) = molecular target: T3, human CD39 (CHO-huCD39) (Homo sapiens, UniProt P49961); assay: Inhibition of cellular CD39 ATPase activity in CHO-huCD39 cells; assay type: cell-based
T3 construct: expressed in transfected cells; host or cells: CHO cells
T3 sequence (P49961 1-510): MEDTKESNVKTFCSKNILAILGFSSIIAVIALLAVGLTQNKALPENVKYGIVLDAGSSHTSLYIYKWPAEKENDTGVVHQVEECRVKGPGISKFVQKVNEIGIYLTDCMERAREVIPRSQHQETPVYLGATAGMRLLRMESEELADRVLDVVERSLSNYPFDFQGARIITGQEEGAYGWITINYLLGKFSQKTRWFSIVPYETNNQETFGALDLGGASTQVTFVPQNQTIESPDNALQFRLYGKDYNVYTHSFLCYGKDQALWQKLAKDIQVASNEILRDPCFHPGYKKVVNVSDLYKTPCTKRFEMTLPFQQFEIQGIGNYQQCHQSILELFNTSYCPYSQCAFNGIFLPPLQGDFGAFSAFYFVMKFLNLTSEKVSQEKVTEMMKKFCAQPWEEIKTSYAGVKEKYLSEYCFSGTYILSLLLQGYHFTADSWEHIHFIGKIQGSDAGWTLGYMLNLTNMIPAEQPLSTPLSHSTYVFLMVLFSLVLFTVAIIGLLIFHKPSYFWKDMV
Experimental: as §1

[3] = molecular target: T4, human Ramos lymphoma cells (Homo sapiens, UniProt P49961); assay: Antibody titration on Ramos cells by flow cytometry; assay type: binding
T4 construct: host or cells: Ramos human lymphoma cells
T4 sequence (P49961 1-510): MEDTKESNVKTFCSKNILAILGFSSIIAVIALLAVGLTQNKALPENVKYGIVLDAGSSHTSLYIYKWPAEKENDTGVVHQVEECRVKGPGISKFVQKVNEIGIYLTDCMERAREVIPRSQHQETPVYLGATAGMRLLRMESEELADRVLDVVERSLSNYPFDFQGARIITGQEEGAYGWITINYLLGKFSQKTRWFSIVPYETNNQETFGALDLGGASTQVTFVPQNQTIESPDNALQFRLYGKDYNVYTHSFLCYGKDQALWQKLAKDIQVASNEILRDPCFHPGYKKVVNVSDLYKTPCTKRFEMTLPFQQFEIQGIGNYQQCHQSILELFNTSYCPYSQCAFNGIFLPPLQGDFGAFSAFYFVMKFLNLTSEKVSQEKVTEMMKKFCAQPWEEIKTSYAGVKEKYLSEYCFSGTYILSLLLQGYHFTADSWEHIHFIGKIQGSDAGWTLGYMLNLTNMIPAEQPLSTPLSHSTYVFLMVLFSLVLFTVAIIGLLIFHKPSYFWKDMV
Experimental: (§2) Cells were incubated with various concentration of unlabeled anti-CD39 antibody from 30 μg/ml to 5×10^−4 μg/ml, for 30 minutes at 4° C. After washes, cells were incubated with Goat anti-mouse H+L labeled secondary antibody for 30 min at 4° C.

[4] = molecular target: T5, CHO cells expressing human CD39 (CHO-huCD39) (Homo sapiens, UniProt P49961); assay: Antibody titration on CHO-huCD39 cells by flow cytometry; assay type: binding
T5 construct: expressed in transfected cells; host or cells: CHO cells
T5 sequence (P49961 1-510): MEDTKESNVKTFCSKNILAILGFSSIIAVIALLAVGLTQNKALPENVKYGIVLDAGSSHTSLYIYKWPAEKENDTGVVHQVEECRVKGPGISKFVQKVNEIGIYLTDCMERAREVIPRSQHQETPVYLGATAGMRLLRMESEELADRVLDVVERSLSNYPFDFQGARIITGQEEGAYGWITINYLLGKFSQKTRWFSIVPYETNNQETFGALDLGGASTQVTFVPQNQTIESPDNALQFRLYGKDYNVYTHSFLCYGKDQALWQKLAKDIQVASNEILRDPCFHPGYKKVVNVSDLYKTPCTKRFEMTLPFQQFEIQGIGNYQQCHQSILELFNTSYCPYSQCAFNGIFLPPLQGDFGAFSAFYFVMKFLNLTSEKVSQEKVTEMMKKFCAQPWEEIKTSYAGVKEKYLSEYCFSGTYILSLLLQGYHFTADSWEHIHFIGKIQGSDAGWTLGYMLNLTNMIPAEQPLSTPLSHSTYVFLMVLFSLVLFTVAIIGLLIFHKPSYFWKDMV
Experimental: as §2

blocking CD39 enzymatic activity in tumor (Ramos) cells [2]: highly potent
potency in Ramos cells compared to all other antibodies tested [2]: greater potency
maximum inhibition achieved, cellular CD39 ([2]; Ramos cells): 81.6%
blocking CD39 enzymatic activity in cells expressing human CD39 (human CD39 (CHO-huCD39)): blocks; also recorded: highly potent
binding to Ramos lymphoma cells [3]: bound; also recorded: binds
binding to cells expressing human CD39 [4]: bound; also recorded: binds
B1: I-394: anti-CD39 antibody, VH SEQ ID NO: 6, VL SEQ ID NO: 7; heavy/light chains SEQ ID NOS: 52 and 53 (antibody)
heavy: EVQLQQSGPELVKPGASVKMSCKASGYTFTDYNMHWVKQSHGRTLEWIGYIVPLNGGSTFNQKFKGRATLTVNTSSRTAYMELRSLTSEDSAAYYCARGGTRFAYWGQGTLVTVSAASTKGPSVFPLAPSSKSTSGGTAALGCLVKDYFPEPVTVSWNSGALTSGVHTFPAVLQSSGLYSLSSVVTVPSSSLGTQTYICNVNHKPSNTKVDKRVEPKSCDKTHTCPPCPAPEAEGAPSVFLFPPKPKDTLMISRTPEVTCVVVDVSHEDPEVKFNWYVDGVEVHNAKTKPREEQYNSTYRVVSVLTVLHQDWLNGKEYKCKVSNKALPSSIEKTISKAKGQPREPQVYTLPPSREEMTKNQVSLTCLVKGFYPSDIAVEWESNGQPENNYKTTPPVLDSDGSFFLYSKLTVDKSRWQQGNVFSCSVMHEALHNHYTQKSLSLSPGK
light: DIVLTQSPASLAVSLGQRATISCRASESVDNFGVSFMYWFQQKPGQPPNLLIYGASNQGSGVPARFRGSGSGTDFSLNIHPMEADDTAMYFCQQTKEVPYTFGGGTKLEIKRTVAAPSVFIFPPSDEQLKSGTASVVCLLNNFYPREAKVQWKVDNALQSGNSQESVTEQDSKDSTYSLSSTLTLSKADYEKHKVYACEVTHQGLSSPVTKSFNRGEC
modifications: Chimeric homo sapiens mus musculus
inhibition of the enzymatic activity of cellular (cell-membrane bound) CD39 [1]: substantially fully blocks; also recorded: inhibit
potency and maximal inhibition of cellular CD39 compared to BY40 ([1]; FIG. 2A): greater potency and maximal inhibition; also recorded: greater potency at all concentrations as well as greater maximal inhibition
